According to PMC7703809 (ChemMedChem, 2020):
Non-standard residues stand in square brackets, D forms with d. Residues, ends and D or L forms follow the SMILES beside them. No end group written: not given here. *: point of attachment. Benzoyl(4-octyl) = CCCCCCCCc1ccc(C(=O)*)cc1; pT = C[C@@H](OP(=O)(O)O)[C@H](N)C(=O)O

What was measured:
PLK3 PBD (335–646) = target: T1, PLK3 PBD (335–646) (Homo sapiens, UniProt Q9H4B4); assay: Fluorescence polarization competitive binding assay, PLK3 PBD
T1 sequence (Q9H4B4 335-646): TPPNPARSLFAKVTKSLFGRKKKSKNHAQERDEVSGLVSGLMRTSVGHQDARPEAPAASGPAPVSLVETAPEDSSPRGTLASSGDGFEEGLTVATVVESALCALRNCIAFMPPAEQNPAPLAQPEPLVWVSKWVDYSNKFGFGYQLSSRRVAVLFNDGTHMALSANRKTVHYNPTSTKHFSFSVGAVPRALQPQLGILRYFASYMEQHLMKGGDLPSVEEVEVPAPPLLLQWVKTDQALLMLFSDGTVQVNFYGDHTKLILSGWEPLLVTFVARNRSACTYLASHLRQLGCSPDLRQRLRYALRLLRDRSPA

PLK1 PBD (367–603) = PLK1 PBD (367–603) (Homo sapiens, UniProt P53350); assay: Fluorescence polarization competitive binding assay, PLK1 PBD; conditions: for Selectivity Index: PLK1 vs PLK3 PBD, accounting for 5-fold difference in tracer affinity
Sequence of PLK1 PBD (367–603) (P53350 367-603): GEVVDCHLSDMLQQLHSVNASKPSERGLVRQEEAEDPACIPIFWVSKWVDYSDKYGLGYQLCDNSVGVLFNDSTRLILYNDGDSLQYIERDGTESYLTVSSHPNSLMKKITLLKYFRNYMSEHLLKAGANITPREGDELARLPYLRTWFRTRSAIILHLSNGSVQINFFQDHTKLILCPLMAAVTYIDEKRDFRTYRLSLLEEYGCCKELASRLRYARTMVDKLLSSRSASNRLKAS

PBIP phosphopeptide 5 = target: T2, PBIP phosphopeptide 5 (Homo sapiens); assay: fluorescence polarization competition
T2 chain: Ac-LHS[pT]AI

FLIP 21 = target: T3, FLIP 21; assay: fluorescence polarization competition
T3 chain: {Benzoyl(4-octyl)}-S[pT]PNGL

chimeric peptide 9 = target: T4, chimeric peptide 9; assay: fluorescence polarization competition
T4 chain: Ac-PLHS[pT]PKNG

FLIP 19 = target: T5, FLIP 19; assay: fluorescence polarization competition
T5 chain: {4‑butylbenzoyl}-S[pT]PNGL

PBIP phosphopeptide 6 = target: T6, PBIP phosphopeptide 6 (Homo sapiens); assay: fluorescence polarization competition
T6 chain: Ac-PLHS[pT]A

Cdc25C phosphopeptide 1 = target: T7, Cdc25C phosphopeptide 1 (Homo sapiens); assay: fluorescence polarization competition
T7 chain: LLCS[pT]PNGL

chimeric peptide 3 = target: T8, chimeric peptide 3; assay: fluorescence polarization competition
T8 chain: Ac-PLHS[pT]PNGL

chimeric peptide 8 = target: T9, chimeric peptide 8; assay: fluorescence polarization competition
T9 chain: GPLATS[pT]PNGL

PLK3 consensus peptide 7 = target: T10, PLK3 consensus peptide 7; assay: fluorescence polarization competition
T10 chain: GPLATS[pT]PKNG

PBIP phosphopeptide 4 = target: T11, PBIP phosphopeptide 4 (Homo sapiens); assay: fluorescence polarization competition
T11 chain: Ac-PLHS[pT]AI

[1] = target: T12, PLK3 fluorescein tracer phosphopeptide (also: fluorescein label, place not given here); assay: fluorescence polarization
T12 chain: GPLATS[pT]PKNG

CC[C@H](C)[C@H](NC(=O)[C@H](C)NC(=O)[C@@H](NC(=O)[C@H](CO)NC(=O)[C@H](Cc1c[nH]cn1)NC(=O)[C@H](CC(C)C)NC(C)=O)[C@@H](C)OP(=O)(O)O)C(=O)O [Compound 5, Ac-LHS[pT]AI] (Ac-LHS[pT]AI-OH)
PLK3 PBD FP IC50 (PLK3 PBD (335–646); competition with fluorescein tracer GPLATS[pT]PKNG, maximum 600 μM tested): lost all detectable affinity

CC[C@H](C)[C@H](NC(=O)[C@H](C)NC(=O)[C@@H](NC(=O)[C@H](CO)NC(=O)[C@H](Cc1c[nH]cn1)NC(=O)[C@H](CC(C)C)NC(=O)[C@@H]1CCCN1C(C)=O)[C@@H](C)OP(=O)(O)O)C(=O)O [Compound 4, Ac-PLHS[pT]AI] (Ac-PLHS[pT]AI-OH)
Selectivity Index (PLK1 PBD (367–603)): 21,133

CC(=O)N1CCC[C@H]1C(=O)N[C@@H](CC(C)C)C(=O)N[C@@H](Cc1c[nH]cn1)C(=O)N[C@@H](CO)C(=O)N[C@H](C(=O)N1CCC[C@H]1C(=O)N[C@@H](CCCCN)C(=O)N[C@@H](CC(N)=O)C(=O)NCC(=O)O)[C@@H](C)OP(=O)(O)O [Compound 9, Ac-PLHS[pT]PKNG] (Ac-PLHS[pT]PKNG-OH)
Selectivity Index (PLK1 PBD (367–603)): 20,906

CC(C)C[C@H](NC(=O)CNC(=O)[C@H](CC(N)=O)NC(=O)[C@@H]1CCCN1C(=O)[C@@H](NC(=O)[C@H](CO)NC(=O)[C@H](CS)NC(=O)[C@H](CC(C)C)NC(=O)[C@@H](N)CC(C)C)[C@@H](C)OP(=O)(O)O)C(=O)O [Compound 1, LLCS[pT]PNGL] (H-LLCS[pT]PNGL-OH)
IC50 (PLK3 PBD (335–646)): > 600 µM

LLCSTPNGL [Compound 2]
PLK1 PBD FP IC50 (PLK1 PBD (367–603); competition with fluorescein tracer MAGPMQS[pT]PLNGAKK, maximum 600 μM tested): almost complete loss of binding

B1: PLK3 PBD 335-646 (protein)
chain: TPPNPARSLFAKVTKSLFGRKKKSKNHAQERDEVSGLVSGLMRTSVGHQDARPEAPAASGPAPVSLVETAPEDSSPRGTLASSGDGFEEGLTVATVVESALCALRNCIAFMPPAEQNPAPLAQPEPLVWVSKWVDYSNKFGFGYQLSSRRVAVLFNDGTHMALSANRKTVHYNPTSTKHFSFSVGAVPRALQPQLGILRYFASYMEQHLMKGGDLPSVEEVEVPAPPLLLQWVKTDQALLMLFSDGTVQVNFYGDHTKLILSGWEPLLVTFVARNRSACTYLASHLRQLGCSPDLRQRLRYALRLLRDRSPA
IC50 (PBIP phosphopeptide 5): > 600 µM
IC50 (FLIP 21): 149 µM
IC50 (chimeric peptide 9): 134 µM
IC50 (FLIP 19): > 600 µM
IC50 (PBIP phosphopeptide 6): > 600 µM
IC50 (Cdc25C phosphopeptide 1): > 600 µM
IC50 (chimeric peptide 3): 164 µM
IC50 (chimeric peptide 8): 6.3 µM
IC50 (PLK3 consensus peptide 7): 2.2 µM
IC50 (PBIP phosphopeptide 4): 270 µM
Kd [1]: 0.0272 µM
